T1: Boi2 SH3 (BOI2_YEAST), P39969
T1 chain: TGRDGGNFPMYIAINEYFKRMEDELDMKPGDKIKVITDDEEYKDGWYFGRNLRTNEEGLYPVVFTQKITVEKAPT

T2: Yhr016c SH3 (YSC84_YEAST), P32793
T2 chain: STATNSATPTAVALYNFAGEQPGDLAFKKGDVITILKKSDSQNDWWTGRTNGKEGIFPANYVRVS

T3: Myo5 SH3 (MYO5_YEAST), Q04439
T3 chain: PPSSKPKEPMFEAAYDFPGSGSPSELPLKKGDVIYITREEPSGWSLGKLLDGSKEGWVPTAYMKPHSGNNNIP

T4: Yfr024 SH3 (LSB3_YEAST), P43603
T4 chain: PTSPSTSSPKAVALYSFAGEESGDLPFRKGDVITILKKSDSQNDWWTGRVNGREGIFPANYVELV

T5: Boi1 SH3 (BOI1_YEAST), P38041
T5 chain: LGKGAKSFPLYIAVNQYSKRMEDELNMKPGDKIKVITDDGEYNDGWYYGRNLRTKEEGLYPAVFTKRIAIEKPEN

T6: Rvs167 SH3 (RV167_YEAST), P39743
T6 chain: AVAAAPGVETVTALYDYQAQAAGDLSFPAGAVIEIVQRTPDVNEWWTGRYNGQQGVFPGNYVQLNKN


Biological target: T1, Boi2 SH3 (BOI2_YEAST), P39969
Experiment: SPOT array

Binder	normalised SPOT signal, Boehringer light units (BLU); mean over the file's lines of this peptide
DPSDKSLPQQPFHK [YJR006W 304-317]	25.2
DNELKDEPEPPNLI [YGR093W 206-219]	26
DQLNRLLPNLPEEE [YJR090C 138-151]	18.1
DIGSKKLPTGPSKK [YER164W 1276-1289]	34.4
DRKNRAPPQRPRFN [YER131W 91-104]	24.1
DILKKESPDVPLFD [YBR155W 341-354]	17.3
DIPLKQVPENPMPT [YIL155C 374-387]	12.3
DKIFKTDPNEPAND [YDL174C 572-585]	26.3
DLDWRKIPFLPKEI [YLR427W 487-500]	26.3
DLQKKYEPSPPATH [YCR069W 34-47]	2.8
DKFIKLIPMRPVLI [YDR479C 286-299]	0.3
DLKKKYAPDPPITH [YNR028W 35-48]	21
DIKTRSVPKIPSIE [YBR163W 320-333]	23.2
DKKKKKYPRKPKKN [YDR485C 332-345]	0
DLSLRYAPNLPRVI [YLL048C 1385-1398]	18.8
DIPRRYIPITPADL [YMR126C 79-92]	52.6

Biological target: T2, Yhr016c SH3 (YSC84_YEAST), P32793
Experiment: SPOT array

Binder	normalised SPOT signal, Boehringer light units (BLU); mean over the file's lines of this peptide
DPSDKSLPQQPFHK [YJR006W 304-317]	36.7
DNELKDEPEPPNLI [YGR093W 206-219]	16.3
DQLNRLLPNLPEEE [YJR090C 138-151]	23200
DIGSKKLPTGPSKK [YER164W 1276-1289]	12.3
DRKNRAPPQRPRFN [YER131W 91-104]	162
DILKKESPDVPLFD [YBR155W 341-354]	18.3
DIPLKQVPENPMPT [YIL155C 374-387]	4.6
DKIFKTDPNEPAND [YDL174C 572-585]	14.1
DLDWRKIPFLPKEI [YLR427W 487-500]	154
DLQKKYEPSPPATH [YCR069W 34-47]	37.1
DKFIKLIPMRPVLI [YDR479C 286-299]	95.2
DLKKKYAPDPPITH [YNR028W 35-48]	14.6
DIKTRSVPKIPSIE [YBR163W 320-333]	36000
DKKKKKYPRKPKKN [YDR485C 332-345]	15.7
DLSLRYAPNLPRVI [YLL048C 1385-1398]	19.3
DIPRRYIPITPADL [YMR126C 79-92]	116

Biological target: T3, Myo5 SH3 (MYO5_YEAST), Q04439
Experiment: SPOT array

Binder	normalised SPOT signal, Boehringer light units (BLU); mean over the file's lines of this peptide
DPSDKSLPQQPFHK [YJR006W 304-317]	192
DNELKDEPEPPNLI [YGR093W 206-219]	179
DQLNRLLPNLPEEE [YJR090C 138-151]	47.5
DIGSKKLPTGPSKK [YER164W 1276-1289]	220
DRKNRAPPQRPRFN [YER131W 91-104]	2430
DILKKESPDVPLFD [YBR155W 341-354]	146
DIPLKQVPENPMPT [YIL155C 374-387]	62.9
DKIFKTDPNEPAND [YDL174C 572-585]	99.1
DLDWRKIPFLPKEI [YLR427W 487-500]	250
DLQKKYEPSPPATH [YCR069W 34-47]	225
DKFIKLIPMRPVLI [YDR479C 286-299]	253
DLKKKYAPDPPITH [YNR028W 35-48]	186
DIKTRSVPKIPSIE [YBR163W 320-333]	102
DKKKKKYPRKPKKN [YDR485C 332-345]	532
DLSLRYAPNLPRVI [YLL048C 1385-1398]	250
DIPRRYIPITPADL [YMR126C 79-92]	33

Biological target: T4, Yfr024 SH3 (LSB3_YEAST), P43603
Experiment: SPOT array

Binder	normalised SPOT signal, Boehringer light units (BLU); mean over the file's lines of this peptide
DPSDKSLPQQPFHK [YJR006W 304-317]	39.2
DNELKDEPEPPNLI [YGR093W 206-219]	0
DQLNRLLPNLPEEE [YJR090C 138-151]	12300
DIGSKKLPTGPSKK [YER164W 1276-1289]	50
DRKNRAPPQRPRFN [YER131W 91-104]	3740
DILKKESPDVPLFD [YBR155W 341-354]	0
DIPLKQVPENPMPT [YIL155C 374-387]	13.5
DKIFKTDPNEPAND [YDL174C 572-585]	0
DLDWRKIPFLPKEI [YLR427W 487-500]	790
DLQKKYEPSPPATH [YCR069W 34-47]	0
DKFIKLIPMRPVLI [YDR479C 286-299]	1380
DLKKKYAPDPPITH [YNR028W 35-48]	16.5
DIKTRSVPKIPSIE [YBR163W 320-333]	48300
DKKKKKYPRKPKKN [YDR485C 332-345]	245
DLSLRYAPNLPRVI [YLL048C 1385-1398]	156
DIPRRYIPITPADL [YMR126C 79-92]	748

Biological target: T5, Boi1 SH3 (BOI1_YEAST), P38041
Experiment: SPOT array

Binder	normalised SPOT signal, Boehringer light units (BLU); mean over the file's lines of this peptide
DPSDKSLPQQPFHK [YJR006W 304-317]	0
DNELKDEPEPPNLI [YGR093W 206-219]	17.2
DQLNRLLPNLPEEE [YJR090C 138-151]	106
DIGSKKLPTGPSKK [YER164W 1276-1289]	3940
DRKNRAPPQRPRFN [YER131W 91-104]	4240
DILKKESPDVPLFD [YBR155W 341-354]	170
DIPLKQVPENPMPT [YIL155C 374-387]	110
DKIFKTDPNEPAND [YDL174C 572-585]	66.5
DLDWRKIPFLPKEI [YLR427W 487-500]	2880
DLQKKYEPSPPATH [YCR069W 34-47]	114
DKFIKLIPMRPVLI [YDR479C 286-299]	117
DLKKKYAPDPPITH [YNR028W 35-48]	164
DIKTRSVPKIPSIE [YBR163W 320-333]	344
DKKKKKYPRKPKKN [YDR485C 332-345]	223
DLSLRYAPNLPRVI [YLL048C 1385-1398]	352
DIPRRYIPITPADL [YMR126C 79-92]	14100

Biological target: T6, Rvs167 SH3 (RV167_YEAST), P39743
Experiment: SPOT array

Binder	normalised SPOT signal, Boehringer light units (BLU); mean over the file's lines of this peptide
DPSDKSLPQQPFHK [YJR006W 304-317]	55.1
DNELKDEPEPPNLI [YGR093W 206-219]	25.3
DQLNRLLPNLPEEE [YJR090C 138-151]	682
DIGSKKLPTGPSKK [YER164W 1276-1289]	38.1
DRKNRAPPQRPRFN [YER131W 91-104]	332
DILKKESPDVPLFD [YBR155W 341-354]	0
DIPLKQVPENPMPT [YIL155C 374-387]	26
DKIFKTDPNEPAND [YDL174C 572-585]	47.5
DLDWRKIPFLPKEI [YLR427W 487-500]	177
DLQKKYEPSPPATH [YCR069W 34-47]	40.7
DKFIKLIPMRPVLI [YDR479C 286-299]	39
DLKKKYAPDPPITH [YNR028W 35-48]	27.7
DIKTRSVPKIPSIE [YBR163W 320-333]	52200
DKKKKKYPRKPKKN [YDR485C 332-345]	66.5
DLSLRYAPNLPRVI [YLL048C 1385-1398]	41.9
DIPRRYIPITPADL [YMR126C 79-92]	956

Biological target: Sho1 SH3 (SHO1_YEAST), P40073
Sequence (P40073 295-366): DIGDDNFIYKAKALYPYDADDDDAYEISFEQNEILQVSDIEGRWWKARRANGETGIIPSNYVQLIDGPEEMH
Experiment: SPOT array

Binder	normalised SPOT signal, Boehringer light units (BLU); mean over the file's lines of this peptide
DPSDKSLPQQPFHK [YJR006W 304-317]	397
DNELKDEPEPPNLI [YGR093W 206-219]	32.3
DQLNRLLPNLPEEE [YJR090C 138-151]	12000
DIGSKKLPTGPSKK [YER164W 1276-1289]	608
DRKNRAPPQRPRFN [YER131W 91-104]	134
DILKKESPDVPLFD [YBR155W 341-354]	26.9
DIPLKQVPENPMPT [YIL155C 374-387]	15
DKIFKTDPNEPAND [YDL174C 572-585]	16.7
DLDWRKIPFLPKEI [YLR427W 487-500]	1070
DLQKKYEPSPPATH [YCR069W 34-47]	32.6
DKFIKLIPMRPVLI [YDR479C 286-299]	112
DLKKKYAPDPPITH [YNR028W 35-48]	4.2
DIKTRSVPKIPSIE [YBR163W 320-333]	31.3
DKKKKKYPRKPKKN [YDR485C 332-345]	114
DLSLRYAPNLPRVI [YLL048C 1385-1398]	35
DIPRRYIPITPADL [YMR126C 79-92]	33.7

Source: PMC314469, “Protein Interaction Networks by Proteome Peptide Scanning” (PLoS Biology, 2004)
